Patent US20220064278A1 (Janssen / Centocor, published 2022)

Tests used:
recombinant human TNFα [1] = target: T1, recombinant human TNFα (human, UniProt P01375 77-233); assay: competition: mAb in hybridoma supernatant preincubated with 5 ng/ml 125I-TNFα, mixture added to plate-coated p55-sf2, cpm bound counted; blocked ligand p55-sf2
T1 construct: also called huTNFα; tumor necrosis factor alpha

recombinant human TNFα [2] = target: T1, recombinant human TNFα; assay: inhibition of 125I-TNFα binding to plate-coated p55-sf2 by hybridoma supernatant
recombinant human TNFα [3] = target: T1, recombinant human TNFα; assay: cell-based or functional assay

B1: TNV148 (antibody, V domains shown)
VH: QVQLVESGGGVVQPGRSLRLSCAASGFIFSSYAMHWVRQAPGNGLEWVAFMSYDGSNKKYADSVKGRFTISRDNPKNTLYLQMNSLRAEDTAVYYCARDRGIAAGGNYYYYGMDVWGQGTTVTVSS
VL: EIVLTQSPATLSLSPGERATLSCRASQSVYSYLAWYQQKPGQAPRLLIYDASNRATGIPARFSGSGSGTDFTLTISSLEPEDFAVYYCQQRSNWPPFTFGPGTKVDIKR
IC50 (read off the curve) (recombinant human TNFα [1]): ~4 ng/mL
fold better at blocking TNF binding than TNV118 and TNV14 (recombinant human TNFα [2]): ~4 fold
neutralizing TNFα bioactivity (recombinant human TNFα [3]): 4 fold (against TNV14)

B2: TNV196 (antibody, V domains shown)
VH: QVQLVESGGGVVQPGRSLRLSCAASGFTFSSYAMHWVRQAPGKGLEWVAFISYDGSNKKSADSVKGRFTVSRDNSKNTLFLQMNSLRAEDTAVFYCARDRGIGAGGNYYYYGMDVWGQGTTVTVSS
VL: EIVLTQSPATLSLSPGERATLSCRASQSVYSYLAWYQQKPGQAPRLLIYDASNRATGIPARFSGSGSGTDFTLTISSLEPEDFAVYYCQQRSNWPPFTFGPGTKVDIK
IC50 (read off the curve) (recombinant human TNFα [1]): ~4 ng/mL
neutralizing TNFα bioactivity (recombinant human TNFα [3]): 4 fold (against TNV14)

B3: TNV15 (antibody, V domains shown)
VH: QVQLVESGGGVVQPGRSLRLSCAASGFTFSSYAMHWVRQAPGKGLEWVAFILYDGSNKKYADSVKGRFTISRDNSKNALYLQMNSLRAEDTAVYYCARDRGVSAGGNYYYYGMDVWGQGTTVTVSS
VL: EIVLTQSPATLSLSPGERATLSCRASQSVSSYLAWYQQKPGQAPRLLIYDASNRATGIPARFSGSGSGTDFTLTISSLEPEDFAVYYCQQRSNWPPFTFGPGTKVDIK
IC50 (read off the curve) (recombinant human TNFα [1]): ~4 ng/mL
